# In US20120093811A1 (published 2012):
# T1: VEGF-D (recombinant human; source not given) (human, UniProt O43915 89-205, limits assumed)
# T1 construct: also used here as target of IC50 values averaged over Source 1 and Source 2; also called vascular endothelial growth factor-D
# T1 sequence: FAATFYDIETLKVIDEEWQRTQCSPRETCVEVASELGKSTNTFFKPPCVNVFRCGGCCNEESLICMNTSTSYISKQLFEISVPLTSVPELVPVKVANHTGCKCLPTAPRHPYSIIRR
# Target: T1, VEGF-D (recombinant human; source not …)
# Assay: SPR (BIAcore) off-rate ranking of scFv clones
# Method: Screening based on scFv binding properties involved surface plasmon resonance (SPR) measurements with a BIAcore™ biosensor. scFv variants were expressed in 200 μL E. coli cultures and the supernatants used to generate crude off-rate only kinetics, which were assessed “relative” to 1A, or other variants.
row,Binder,koff [s⁻¹]
1,scFv clone G75 (scFv) scFv: QVQLVQSGAEVKQPGASVKVSCKASGYTFTGYNMYWVRQVPGQGLEWMGYIDPYNGDTTYNQKFKGRVTMTTDTSTSTAYMELRSLRSDDTAVYYCARTSYYGGMDYWGRGALVTVASGGGASGGGGSGGGGSDIVMTQTPLSSPVTLGQPASISCRSSQSLVHSNGNTYLHWLQQRPGQPPRLLIYKVSNRFSGVPDRFSGSGAGTDFTLKISRVEAEDVGVYYCSQSTHVPRTFGQGTKLEIKR,0.0072
2,"scFv clone H44 (scFv, G131R lies in the scFv linker) scFv: QVQLVQSGAEVKQPGASVKVSCKASGYTFTGYNMYWVRQAPGQGLGWMGYIDPYNGDTTYNQKFKGRVTMTTDTSTSTAYMELRSLRSDDTAVYYCARTSYYGGMDYWGRGTLVTVASGGGASGGGGSGGRGSDIVMTQTPLSSPVTLGQPASISCRSSQSLVHSNGNTYLHWLQQRPGQPPRLLIYKVSNRFSGVPDRFSGSGAGTDFTLKISRVEAEDMGVYYCSQSTHVPRTFGQGTKLEIKR",0.00657
3,scFv clone H71 (scFv) scFv: QVQLVQSGAEVKQPGASVRVSCKASGYTFTGYNMYWVRQAPGQGLEWMGYIDPYNGDTTYNQKFKGRVAMTTDTSTSTAYMELRSLRSDDTAVYYCARTSYYGGMDYWGRGTLVTVASGGGASGGGGSGGGGSDIVMTQTPLSSPVTLGQPASISCRTSQSLVHSNGNTYLHWLQQRPGQPPRLLIYKVSNRFSGVPDRFSGSGAGTDFTLKISRVEAEDVGVYYCSQSTHVPRTFGQGTKLEIKR,0.00653
4,scFv clone HH41 (scFv) scFv: QVQLVQSGAEVKQPGASVKVSCKASGYTFTGYNMYWVRQAPGQGLEWMGYIDPYNGDTTYNQKFKGRVTMTTDTSTSTAYMKLRSLRSDDTAVYYCARTSYYGGMDYWGRGTLVTVASGGGASGGGGSGGGGSDIVMTQTPLSSPVTLGQPASISCRSSQSLVHGNGNTYLHWLQQRPGQPPRLLIYKVSNRFSGVPDRFSGSGAGTDFTLKISRVEAEDVGVYYCSQSTHVPRTFGQGTKLEIKR,0.00104
5,scFv clone HH69 (scFv) scFv: QVQLVQSGAKVKQPGASVKASCKASGYTFTGYNMYWVRQAPGQGLEWMGYIDPYSGDTTYNQKFKGRVTMTTDTSTSTAYMELRSLRSDDTAVYYCARTSYYGGMDYWGRGTLVTVASGGGASGGGGSGGGGSDIVMTQTPLSGPVTLGQPASISCRSSQSLVHSNGNTYLHWLQQRPGQPPRLLIYKVSNRFSGVPDRFSGSGAGTDFTLKISRVEAEDVGVYYCSQSTHVPRTFGRGTKLEIKR,0.00212
6,scFv clone HU75 (scFv) scFv: QVQLVQSGAEVKQPGASVKVSCKASGYTFTGYNMYWVRQAPGQGLEWMGYIDPYNGDTTYNQKFKGRVTMTTDTSTSTAYMKLRSLRSDDTAVYYCARTSYYGGMDYWGRGTLVTVASGGGASGGGGSGGGGSDIVMTQTPLSGPVTLGQPASISCRSSQSLVHSNGNTYLHWLQQRPGQPPRLLIYKVSNRFSGVPDRFSGSGAGTDFTLKISRVEAEDVGVYYCSQSTHVPRTFGRGTKLEIKR,0.00181
7,scFv clone HW78 (scFv) scFv: QVQLVQSGAEVKQPGASVKVSCKARGYTFTGYNMYWVRQAPGQGLEWMGYIDPYNGDTTYNQKFKGRVTMTTDTSTGTAYMKLRSLRSDDTAVYYCARTSYYGGMDYWGRGTLVTVASGGGASGGGGSGGGGSDIVMTQTPLSSPVTLGQPASISCRSSQSLVHSNGNTYLHWLQQRPGQPPRLLIYKVSNRFSGVPDRFSGSGAGTDFTLKISRVEAEDVGVYYCSQSTHVPRTFGQGTKLEIKR,0.00189
8,scFv clone HX28 (scFv) scFv: QVQLVQSGAKVKQPGASVKASCKASGYTFTGYNMYWVRQAPGQGLEWMGYIDPYSGDTTYNQKFKGRVTMTTDTSTSTAYMELRSLRSDDTAVYYCARTSYYGGMDYWGRGTLVTVASGGGASGGGGSGGGGSDIVMTQTPLSSPVTLGQPASISCRSSQSLVHSNGNTYLHWLQQRPGQPPRLLIYKVSNRFSGVPGRFSGSGAGTDFTLKISRVEAEDVGVYYCSQSTHVPRTFGQGTKLEIKR,0.00643
9,scFv clone I71 (scFv) scFv: QVQLVQSGAEVKQPGASVRVSCKASGYTFTGYNMYWVRQAPGQGLEWMGYIDPYNGDTTYNQKFKGRVTMTTDTSTSTAYMELRSLRSDDTAVYYCARTSYYGGMDYWGRGTLVTVASGGGASGGGGSGGGGSDIVMTQTPLSSPVTLGQPASISCRSSQSLVHSNGNTYLHWLQQRPGQPPRLLIYKVSNRFSGVPDRFSGSGAGTDFTLKISRVEAEDVGVYYCSQSTHVPRTFGQGTKLEIKR,0.00661
10,scFv clone I84 (scFv) scFv: QVQLVQSGAEVKQPGASVKVSCKASGYTFTGYNMYWVRQVPGQGLEWMGYIDPYNGDTTYNQKFKGRVTMTTDTSTSTAYMELRSLRSDDTAVYYCARTSYYGGMDYWGRGTLVTVASGGGASGGGGSGGGGSDIVMTQTPLSSPVTLGQPASISCRSSQSLVHSNGNTYLHWLQQRPGQPPRLLIYKVSNRFSGVPDRFSGSGAGTDFTLKISRVEAEDVGVYYCSQSTHVPRTFGQGTKLEIKR,0.00738
11,scFv clone K89 (scFv) scFv: QVQLVQSGAEVKQPGASVKVSCKARGYTFTGYNMYWVRQAPGQGLEWMGYIDPYNGDTTYNQKFKGRVTMTTDTSTSTAYMELRSLRSDDTAVYYCARTSYYGGMDYWGRGTLVTVASGGGASGGGGSGGGGSDIVMTQTPLSSPVTLGQPASISCRSSQSLVHSNGNTYLHWLQQRPGQPPRLLIYKVSNRFSGVPDRFSGSGAGTDFTLKISRVEAEDVGVYYCSQSTHVPRTFGQGTKLEIKR,0.00403
12,scFv clone P88 (scFv) scFv: QVQLVQSGAEVKQPGASVKVSCKASGYTFTGYNMYWVRQAPGQGLEWMGYIDPYNGDTTYNQKFKGRVTMTTDTSTSTAYMELRSLRSDDTAVYYCARTSYYGGMDYWGRGTLVTVASGGGASGGGGSGGGGSDIVMIQTPLSSPVTLGQPASISCRSSQSLVHSNGNTYLHWLQQRPGQPPRLLIYKVSNRFSGVPDRFSGSGAGTDFTLKISRVEAEDVGVYYCSQSTHVPRTFGQGTKLEIKR,0.00785
13,scFv clone Q30 (scFv) scFv: QVQLVQSGAEVKQPGASVKVSCKASGYTFTGYNMYWVRQAPGQGLEWMGYIDPYNGDTTYNQKFKGRVTMTTDTSTSTAYMELRSLRSDDTAVYYCARTSYYGGMDYWGRGALVTVASGGGASGGGGSGGGGSDIVMTQTPLSSPVTLGQPASISCRSSQSLVHSNGNTYLHWLQQRPGQPPRLLIYKVSNRFSGVPDRFSGSGAGTDFTLKISRVEAEDVGVYYCSQSTHVPRTFGQGTKLEIKR,0.0072
14,scFv clone V37 (scFv) scFv: QVQLVQSGAEVKQPGASVKVSCKASGYTFTGYNMYWVRQVPGQGLEWMGYIDPYNGDTTYNQKFKGRVTMTTDTSTSTAYMELRSLRSDDTAVYYCARTSYYGGMDYWGRGTLVTVASGGGASGGGGSGGGGSDIVMTQTPLSSPVTLGQPASISCRSSQSLVHSNGNTYLHWLQQRPGQPPRLLIYKVSNRFSGVPDRFSGSGAGTDFTLKISRVEAEDVGVYYCSQSTHVPRTFGQGTKLEIKR,0.00794
15,scFv clone W25 (scFv) scFv: QVQLVQSGAEVKQPGASVKVSCKASGYTFTGYNMYWVRQAPGQGLGWMGYIDPYNGDTTYNQKFKGRVTMTTDTSTSTAYMELRSLRSDDTAVYYCARTSYYGGMDYWGRGTLVTVASGGGASGGGGSGGGGSDIVMTQTPLSSPVTLGQPASISCRSSQSLVHSNGNTYLHWLQQRPGQPPRLLIYKVSNRFSGVPDRFSGSGAGTDFTLKISRVEAEDVGVYYCSQSTHVPRTFGQGTKLEIKR,0.0046
16,scFv clone W36 (scFv) scFv: QVQLVQSGAEVKQPGASVKVSCKASGYTFTGYNMYWVRQAPGQGLGWMGYIDPYNGDTTYNQKFKGRVTMTTDTSTSTAYMELRSLRSDDTAVYYCARTSYYGGMDYWGRGTLVTVASGGGASGGGGSGGGGSDIVMTQTPLSSPVTLGQPASISCRSSQSLVHSNGNTYLHWLQQRPGQPPRLLIYKVSNRFSGVPDRFSGSGAGTDFTLKISRVEAEDVGVYYCSQSTHVPRTFGQGTKLEIKR,0.00611
17,"scFv clone Z23 (scFv, G131R lies in the scFv linker) scFv: QVQLVQSGAEVKQPGASVKVSCKASGYTFTGYNMYWVRQAPGQGLGWMGYIDPYNGDTTYNQKFKGRVTMTTDTSTSTAYMELRSLRSDDTAVYYCARTSYYGGMDYWGRGTLVTVASGGGASGGGGSGGRGSDIVMTQTPLSSPVTLGQPASISCRSSQSLVHSNGNTYLHWLQQRPGQPPRLLIYKVSNRFSGVPDRFSGSGAGTDFTLKISRVEAEDVGVYYCSQSTHVPRTFGQGTKLEIKR",0.00556
18,scFv clone Z49 (scFv) scFv: QVQLVQSGAEVKQPGASVKVSCKASGYTFTGYNMYWVRQAPGQGLEWMGYIDPYNGDTTYNQKFKGRVTMTTDTSTSTAYMELRSLRSGDTAVYYCARTSYYGGMDYWGRGTLVTVASGGGASGGGGSGGGGSDIVMTQTPLSSPVTLGQPASISCRSSQSLVHSNGNTYLHWLQQRPGQPPRLLIYKVSNRFSGVPDRFSGSGAGTDFTLKISRVEAEDVGVYYCSQSTHVPRTFGQGTKLEIKR,0.00497
